In the nanobody polyreactivity screen of Harvey et al. (2022):

Assay: yeast display, Sf9 membrane polyspecificity reagent, FACS + sequencing; frameworks hold sequencing errors
Summary of the method: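 Sorting gates, low and high (top ~1%), were placed on anti-HA fluorescence to track expression and on streptavidin fluorescence to track reagent binding. A clone's polyreactivity label is taken from the gate it came out of. The reagent was 10% biotinylated, detergent-solubilized Sf9 membrane, applied for 1 hour at 4 °C to galactose-induced yeast display cells.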

With “QVQLVESGGGLVQAGGSLRLSCAASGITFEGYAMGWYRQAPGKERELVAAIRSSGTSTYYADSVKGRFTISRDNAMNTVYLQMNSLKPEDYAVYYCNRARSSSRYDYWGQGTQGTVSS” the “polyreactivity (PSR sort gate)” value was “low polyreactivity”.

For “QVQLVESGGGLVQAGGSLRLSCAASGYTFPSNAMGWYRQAPGKERELVAAISSGGRTNYADSVKGRFTISRDNAKNTVYLQMNSLKPEDTGVYYCNADGGPCYPRAYDYWGQGTQVTVSS”, the “polyreactivity (PSR sort gate)” value was “low polyreactivity”.

In the case of “QVQLVESGGGLVQAGGSLRLSCAASGFIFGVYAMGWYRQAPGKERELVASISVSGDDTYYADSVKGRFTISRDNAKNTVYLQMNSLKPEDTAVYYCAADYPGGIYYDDYLYDMDYWGQGTQVTVSS”, the “polyreactivity (PSR sort gate)” value is reported as “low polyreactivity”.

With “QVQLVESGGGLVQAGGSLRLSCAASGSIFDFNAMGWYRQAPGKERELVAAIDDIDDSTYYSDSVKGRFTISRDNAKNTVYLQMNSLKPEDTAVYYCAAELRPGYRSSYGLIYDYWGQGTQVTVSS” the “polyreactivity (PSR sort gate)” value was “low polyreactivity”.

In the case of “QVQLVESGGGLVQAGGSLRLSCAASGSIFYNNVMGWYRQAPGKERELVAVISGGGSTNYADSVKGRFTISRDNAKNNVYLHMNSLKREDTAVYYCAARGRYSYGDRYEYWGQATQVTVSS”, the “polyreactivity (PSR sort gate)” value is reported as “low polyreactivity”.

With “QVQLVESGGGLVQAGGSLRLSCAASGYIFGRNARGWYRQAQGKERELVAVISSRGSRTYYADSVKGRYTISRDNAKNTVYLQMNSLKPEDTAVYYCNAVMWWDWEYDFYYWGQGNQVTVSS” the “polyreactivity (PSR sort gate)” value was “high polyreactivity”.

In the case of “QVQLVESGGGLVQAGGSLRLSCAASGSTFNGYAMGWYRQAPGKERELVAAITSSGSRTYYADSVKGRFTISRDNAKNTVYLQMNSLKPVDTAVYYCNAGKLARTYFRSSSLSPGDYWGQGTQVTVSS”, the “polyreactivity (PSR sort gate)” value is reported as “high polyreactivity”.

With “QVQLVESGGGLVQAGGSLRLSCAASGGIFKYNAMGWYRQAPGKERELVAAIDTSGGSTYYADSVKGRFTISRDNAKNTVYLQMNSLKPEDTAVYYCAAELGLAQYYYWGQGTQVTVSS” the “polyreactivity (PSR sort gate)” value was “low polyreactivity”.

With “QVQLVESGGGLVQAGGSLRLSCAASGRTFRTYTMGWYRQAPGKERELVAAIRSIDGITYYADSVKGRFTISRDNAKTTVDLPKNSLKPEDTAVYYCAARYTASKPMGYWGQGTQVTVSS” the “polyreactivity (PSR sort gate)” value was “high polyreactivity”.

In the case of “QVQLVESGGGLVQAGGSLRLSCAASGRTFRTYTMGWYRQAPGKEREFVAAITSSGASTYYADSVKGRFTISRDNAKNTVYLEMNSLKPEDTAVYYCAARYGRRLVWVPALLYDYWGQGTQVTVSS”, the “polyreactivity (PSR sort gate)” value is reported as “high polyreactivity”.

In the case of “QVQLVESGGGLVQAGGSLRLSCAASGRTFLWNAMGWYRQAPGKERELVAAITSGGRTTYADSVKGRFTISRDNAKNTVYLQMNSLKPEDTAVYYCAAVSANQDFDYWGQGTQVTVSS”, the “polyreactivity (PSR sort gate)” value is reported as “high polyreactivity”.

With “QVQLVESGGGLVQAGGSLRLSCAASGRTFWYYTMGWYRQAPGKERELVAAISSGGRTNYADSVKGRFTISRDNAKITVYLQMNSLKPEDTAVYYCATSRYYKYVERDYWGQGTQVTVSS” the “polyreactivity (PSR sort gate)” value was “high polyreactivity”.

For “QVQLVESGGGLVQAGGSLRLSCAASGRIFPKYAMGWYRQAPGKERELVAAIRWSGGNTYYADSVKGRFTISRDNAKNTVYLQMNSLKPEDTAVYYCAATPYVSKYYYFGHDYWGQGTQVTVSS”, the “polyreactivity (PSR sort gate)” value was “high polyreactivity”.

With “QVQLVESGGGLVQAGGSLRLSCAASVRTFRIYAMGWYRQAPGKERELVAAISWDDGSTYYADSVKGRFTISRDNAKNTVYLQMNSLKPEDTAVYYCAAEYYFVNRGAWYDYWGQGTQVTVSS” the “polyreactivity (PSR sort gate)” value was “high polyreactivity”.

With “QVQLVESGGGLVQAGGSLRLSCAASGRIFYGNALGWYRHAPGKERELVATISSSGGRTTYADSVKGRFTISRDNAKNTVYLPMNSLKPEDTAVYYCAAQGYWTGYDYWGQGTQVTVSS” the “polyreactivity (PSR sort gate)” value was “high polyreactivity”.

For “QVQLVESGGGLVQAGGSLRLICAASGRIFKVYAMGWYRQAPGKERELVAVITGGGSTNYADSVKGRFTISRDNAKNTVDLQMNSLKPEDTAVYYCATEGYGHGGETDGGVYSELGSWGQGTQVTVSS”, the “polyreactivity (PSR sort gate)” value was “low polyreactivity”.

In the case of “QVQLVESGGGLVQAGGSLRLSCAASGYTFTINTMGWYRQAPGKERELVAAITWRGGSTYYADSVKGRFTISRDNANNTVYLQMNSLKPEDTAVYYCNKDYYITTTTFDYWGQGTQVTVSS”, the “polyreactivity (PSR sort gate)” value is reported as “low polyreactivity”.

For “QVQLVESGGGLVQAGGSLRLSCAASGRTFTTYTMGWYRQAPGKERELVASINYRGGRTYYADSVKGRFTISRDNAKNTVYLQMNSLKPEDTAVYYCAKRRYYRRRQYYHYDYWGQGTQVTVSS”, the “polyreactivity (PSR sort gate)” value was “high polyreactivity”.

With “QVQLVESGGGLVQAGGSLRLSCAASGRIFVYNAMGWYRQAPGKERELVASISWSGDSTYADSVKGRFTISRDNAKNTVYLQMNSLKPEDTAVYYCAADNGSKEFDYWGQGTQVTVSS” the “polyreactivity (PSR sort gate)” value was “low polyreactivity”.

With “QVQLVESGGGLVQAGRSLRLSCAASGFIFDWNAMGWYRQAPGKERELVAAISWSGGRTYYADSVKGRFTISRDNAKNTVYLQMNSLKPEDTAVYYCNARRYFSRDTSGYNYWGQGTQVTVSS” the “polyreactivity (PSR sort gate)” value was “high polyreactivity”.

With “QVQLVESGGGLVQAGGSLRLSCAASGSIFRYYAMGWYRQAPGKERELVAAISIRGGRTYYADSVKGRFTISRDNAKNTVYLQMNSLKPEDTAVYYCATAFGFTAKYYYWGQGTQVTVSS” the “polyreactivity (PSR sort gate)” value was “high polyreactivity”.

With “QVQLVESGGGLVQAGGSLRLSCAASGSIFSFYAMGWYRQAPGKERELVASITRRGGSTSYADSVKGRFTISRDNAKNTVYLQMNSLKPEDTAVYYCATESKFISVQRVGYYYVKFDYWGQGTQVTVSS” the “polyreactivity (PSR sort gate)” value was “high polyreactivity”.

In the case of “QVQLVESGGGLVQAGGSLPLRCAASGLILEYYAMGWYRQAPGKERELVAAITRGGSTYYADSVKWRFTISRDNAKNTVYLQMNSLKPEDTAVYYCAADRYYYEYDYWGQGTQVNVSS”, the “polyreactivity (PSR sort gate)” value is reported as “low polyreactivity”.

With “QVQLVESGGGLVQAGGSLRLSCAASGFIFYRNTMGWYRQAPGKERELVAAISVSGGSTNYADSVKGRFTISRDNAKNTVYLQMNSLKPEDTAVYYCAARVRDSLVYGGWDDYWGQGTQVTVSS” the “polyreactivity (PSR sort gate)” value was “high polyreactivity”.

For “QVQLVESGGGLVQAGGSLRLSCAASGITSGNNAMGWYRQAPGKERELVAAISWTGGSTYYADSVKGRFTISRDNAKNTVYLEMNSLKPEDTAVYYCAAGGWDPFTEQHYEYWGQGTQVTVSS”, the “polyreactivity (PSR sort gate)” value was “low polyreactivity”.

For “QVQLVESGGGLVQAGGSLRLSCAASGFTFEFNVMGWYRQAPGKERELVASIRWGSTSYADSVKGRFTISRDNAKNTVYLQMNSLKPEDTALYDCAAVTYDYWRQGTQVTVSS”, the “polyreactivity (PSR sort gate)” value was “low polyreactivity”.

With “QDQLVESGGGLVQAGGSLRLSCAASGFTFQYYAMGWYRQAPGKERELVAAISRRGGRTDYADSVKGRFTISRDNAKNTVYLQINSLKPEDTEVYYCARDPGAFEYSGQGTQVTVSS” the “polyreactivity (PSR sort gate)” value was “high polyreactivity”.

For “QVQLVESGGGLVQAGGSLRLSCAASGLIFYRYAMGWYRQAPGTEREMVAAITTNGARTYYADSVKGRFTISRDNAKNTVYLEMNSLKPEDTAVYYCAAYGAGKFWADHNYWGQGTQVTVSS”, the “polyreactivity (PSR sort gate)” value was “high polyreactivity”.

In the case of “QVQLVESGGGVVQAGGSLRLSCAASGRIIKSYAMGWYRQAPGKERDLVAAITRGGRTSYADSVKGRFTISRDNAKNTVYLQMNSLKPEDTAVYYCADDGGWRYHPFSSLFDYWGQGPQVTVSS”, the “polyreactivity (PSR sort gate)” value is reported as “low polyreactivity”.

In the case of “QVQLVESGGGLVQAGGSLRLSCADSGFTFYRNAMGWYRQAPGKERELVAAITSTGSTNYADSVKGRFTISRDNAKNTVYLQMNSLKPEDTAVYYCIKRRFGRQGMDYWGQGTQVTVSS”, the “polyreactivity (PSR sort gate)” value is reported as “low polyreactivity”.

With “QVQLVESGGGLVQAGGSLRLSCAASGSTQTVNVMGWYRQAPGKEREFVAAINDSGSTYYADSVKGRFTISRDNAKNTVYLQMNSLKPEDTAVYYCATYYWLGLSLYDYWGQGTQVTVSS” the “polyreactivity (PSR sort gate)” value was “low polyreactivity”.

With “QGQLVESGGALVQAGGSLRISCAASGRTISQNSMGLYRPAPGKERELVAAIRRGGSTNYADSVKGRFTISRDNAKNTVFLQMNSLKQEDSAFYYCAGDLRRNGWGFDYWGQGTQVTVSS” the “polyreactivity (PSR sort gate)” value was “high polyreactivity”.

With “QFQLVDSGGGLVQAGGSLRLSCAASGLIFFYYAMGWYRQAPGKERELVAAIRTNYADSVKGRFTISRDNAKNTVYLQMNSLKPEDTAVYYCAAESSQTPTSAFDYWGQGTQVTVSS” the “polyreactivity (PSR sort gate)” value was “low polyreactivity”.

With “QVQLVESGGGLVQAGGSLRLSCAASGRIFWGYAMGWYRQAPGKEREVVAAISWSGGSTYYADSVKGRFTISRDNAKNTVYLQMNSLKPEDTAVYYCAALRFQSYNYWGQGTQVTVSS” the “polyreactivity (PSR sort gate)” value was “high polyreactivity”.

In the case of “QVQLVESGGGLVQAGDSLRLSCGASGRTFYPYAMGWYRQAPGKERELVAAITWSGGSTYYADSVKGRFTISRDNAKNTVYLQMNSLKPEDTAVYFCNAAELTYDLYDYCGQGTQVTVSS”, the “polyreactivity (PSR sort gate)” value is reported as “low polyreactivity”.

In the case of “QVQLVESGGGLVQAGGSLRLSCAASGIIFEGYAMGWYRQAPGKERELVAAISQSGGSTRYADSVKGRFTISRDNAKNTVYLQMNSLKPEDTAVYYCAARYILWDGDSWTEFDYWGQGTQVTVSS”, the “polyreactivity (PSR sort gate)” value is reported as “low polyreactivity”.

With “QVQLVESGGGIVQAGGSLRVSCVSSGRTCSRYAMGWSRQAPGKDRELVAAISRRGGSTYYADSVKGRFTISRDNAKNTVYLQMKSLKREDTAVYYCAAGYITWGSGNWVVTPYDYWGQGSQVTVSS” the “polyreactivity (PSR sort gate)” value was “high polyreactivity”.

In the case of “QVHLHESGGGLVQAGGSLRLSCAASGTISYAGPMGWYRQAPGKEREFVAGIGVGSNTNYADSVKGRYTIIRDNAKNTLYLQKNSLKTEDTAVYYCAVAGYAPLGRPYWGQGTQVTVSS”, the “polyreactivity (PSR sort gate)” value is reported as “low polyreactivity”.

With “QVQLVESGGGLVQAGGSLRLSCAASGSIFGRNAMGWYRQAPGKERELVAAITWRTGSTFYADSVKGRFTISRDNAKNTVYLQMNCLKPEDTAVYYCNAAGPAYSYYHWLWGDYNSWRQGTQVTVSS” the “polyreactivity (PSR sort gate)” value was “low polyreactivity”.

In the case of “QVQLVESGGGLVQAGGSLRLSCAASGIIFAAYVMGWYRQAPGKERELVAAISKSGGRTYYADSVKGRFTISRDNAKNTVYLQMNSLKREDTAVYYCAASYTYYSIGLGTDVRYGYWGEGTQVTVSS”, the “polyreactivity (PSR sort gate)” value is reported as “high polyreactivity”.

With “QVQLVESGGGLVQAGGSLRLSCAASGRIFGYYMGWYRQAPGKERELVARITFRGGSTYYADSVKGRFTISRDNAKNTVYLQMNSLKPEDTAVYYCNASGKGGSTNRSDYWGQGTQVTVSW” the “polyreactivity (PSR sort gate)” value was “high polyreactivity”.

With “QVQLVESGGGLVQAGGSLRLSCAASVSIFATNAKGWYRQAPGKERELVASISSGGGSTYYADSVKGRFTISRDNEKNTVYLQMNSLKPEDTAVYYFARRIGHGSRPYWLETWRYPYDYWGQGTQLTVSS” the “polyreactivity (PSR sort gate)” value was “low polyreactivity”.

In the case of “QVQLVESGGGLVQAGGSLRLSCAASGNIFWGNAMGWYRQAPGKERELVAAITSIDSSTYYADSVKGRFTISRDNAKNTVYLQMNSLKPEDTAVYYCAADGDWYGYIWQSDDGYDSWGQGTQVTVSS”, the “polyreactivity (PSR sort gate)” value is reported as “low polyreactivity”.
